Here are results for 22 molecules from patent publication US8258256 (Johns Hopkins, dated 2012).

Ends that are not written are not given here. * marks the point of attachment. Biotin = O=C1N[C@H]2[C@H](CS[C@H]2CCCCC(=O)*)N1

Sequences and labels used below:
B1: selected phage with insert SEQ ID NO 4 (peptide)
peptide: YTSPHHSTTGHL
modifications: not fully specified; also: displayed on M13 phage pIII
notes: Selected in three rounds on His-PSMA; not tested singly; not shown: M13 phage coat protein III
B2: selected phage with insert SEQ ID NO 10 (peptide)
peptide: NGFSHHAPLMRY
modifications: not fully specified
notes: as for B1
B3: selected phage with insert HNAYWHWPPSMT (SEQ ID NO 2) (peptide)
peptide: HNAYWHWPPSMT
modifications: not fully specified
notes: as for B1
B4: selected phage with insert SEQ ID NO 30 (peptide)
peptide: WTHHHSYPRPLQ
modifications: not fully specified
notes: as for B1
B5: selected phage with insert SEQ ID NO 29 (peptide)
peptide: GHLIPLRQPSHQ
modifications: not fully specified
notes: as for B1
B6: selected phage with insert SEQ ID NO 6 (peptide)
peptide: NSFPLMLMHHHP
modifications: not fully specified; also: displayed on M13 phage pIII
notes: as for B1
B7: selected phage with insert SEQ ID NO 14 (peptide)
peptide: KSLSRHDHIHHH
modifications: not fully specified
notes: as for B1
B8: selected phage with insert SEQ ID NO 13 (peptide)
peptide: AGFQHHPSFYRF
modifications: not fully specified
notes: as for B1
B9: selected phage with insert SEQ ID NO 34 (peptide)
peptide: YRHWPIDYPPPP
modifications: not fully specified; also: displayed on M13 phage pIII
notes: as for B1
B10: selected phage with insert SEQ ID NO 9 (peptide)
peptide: SEFIHHWTPPPS
modifications: not fully specified; also: displayed on M13 phage pIII
notes: as for B1
B11: selected phage with insert SEQ ID NO 35 (peptide)
peptide: MIHTNHWWAQDR
modifications: not fully specified; also: displayed on M13 phage pIII
notes: as for B1
B12: selected phage with insert SEQ ID NO 32 (peptide)
peptide: HHEWTHHWPPPP
modifications: not fully specified; also: displayed on M13 phage pIII
notes: as for B1
B13: selected phage with insert SEQ ID NO 31 (peptide)
peptide: KHMHWHPPALNT
modifications: not fully specified
notes: as for B1
B14: selected phage with insert SEQ ID NO 36 (peptide)
peptide: TPLPSFTDGHHT
modifications: not fully specified; also: displayed on M13 phage pIII
notes: as for B1
B15: selected phage with insert SEQ ID NO 17 (peptide)
peptide: QRSPMMSRIRLP
modifications: not fully specified
notes: as for B1
B16: selected phage with insert SEQ ID NO 8 (peptide)
peptide: SLDSMSPQWHAD
modifications: not fully specified; also: displayed on M13 phage pIII
notes: as for B1
B17: selected phage with insert SEQ ID NO 33 (peptide)
peptide: AWPENPSRRPFT
modifications: not fully specified; also: displayed on M13 phage pIII
notes: as for B1
B18: non-selected control peptide QMARIPKRLARHK-biotin (peptide)
peptide: QMARIPKRLARHK(Biotin)
notes: also called control consisting of a positively charged 12 amino acid peptide
B19: WQPDTAHHWATLK (Biotin) monomeric peptide (peptide)
peptide: WQPDTAHHWATLK(Biotin)-OH
modifications: N-terminus assumed
SMILES: CC(C)C[C@H](NC(=O)[C@@H](NC(=O)[C@H](C)NC(=O)[C@H](Cc1c[nH]c2ccccc12)NC(=O)[C@H](Cc1c[nH]cn1)NC(=O)[C@H](Cc1c[nH]cn1)NC(=O)[C@H](C)NC(=O)[C@@H](NC(=O)[C@H](CC(=O)O)NC(=O)[C@@H]1CCCN1C(=O)[C@H](CCC(N)=O)NC(=O)[C@@H](N)Cc1c[nH]c2ccccc12)[C@@H](C)O)[C@@H](C)O)C(=O)N[C@@H](CCCCNC(=O)CCCC[C@@H]1SC[C@@H]2NC(=O)N[C@@H]21)C(=O)O
notes: Synthetic, Fmoc chemistry; also called biotinylated monomeric peptide
B20: dimeric WQPDTAHHWATL (SEQ ID NO:1) peptide (as used in the NAALADase assay) (peptide)
peptide: WQPDTAHHWATL
chain: Lys
modifications: not fully specified (C-terminus); printed as (WQPDTAHHWATL)2-K; also: two copies of chain 1, C-termini joined to alpha and epsilon amines of branching Lys, C-terminal label on Lys not given here
B21: WQPDTAHHWATL (SEQ ID NO:1) phage (peptide)
peptide: WQPDTAHHWATL
modifications: not fully specified
notes: Whole M13 phage particle displaying the 12-mer; tested as phage, in pfu/ml; not shown: M13 phage coat protein III

T1 sequence (Q04609 other isoform, or with tags, fused parts or gaps limits assumed): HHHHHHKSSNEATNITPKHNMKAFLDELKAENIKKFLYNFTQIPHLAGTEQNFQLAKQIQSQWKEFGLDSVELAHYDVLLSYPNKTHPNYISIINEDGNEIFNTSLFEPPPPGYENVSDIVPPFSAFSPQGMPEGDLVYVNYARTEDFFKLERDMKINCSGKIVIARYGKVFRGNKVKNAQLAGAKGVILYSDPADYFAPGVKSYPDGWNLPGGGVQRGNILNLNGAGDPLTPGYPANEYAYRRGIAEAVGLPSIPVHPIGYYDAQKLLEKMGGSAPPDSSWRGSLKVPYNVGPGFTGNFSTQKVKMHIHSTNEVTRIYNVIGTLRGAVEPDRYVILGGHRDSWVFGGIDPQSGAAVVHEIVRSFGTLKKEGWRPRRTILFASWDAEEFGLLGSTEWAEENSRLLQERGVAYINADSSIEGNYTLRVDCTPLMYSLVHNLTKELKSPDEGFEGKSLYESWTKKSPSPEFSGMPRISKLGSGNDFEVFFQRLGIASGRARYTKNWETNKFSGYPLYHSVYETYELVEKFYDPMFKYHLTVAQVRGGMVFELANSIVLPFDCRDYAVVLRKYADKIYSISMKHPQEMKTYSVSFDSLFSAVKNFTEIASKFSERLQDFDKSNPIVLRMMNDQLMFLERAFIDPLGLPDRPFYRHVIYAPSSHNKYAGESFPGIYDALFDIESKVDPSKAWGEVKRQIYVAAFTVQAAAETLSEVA

One assay addresses T1, His-PSMA (recombinant extracellular domain of prostate specific membrane antigen with amino-terminal His-6 … (UniProt Q04609 44-750, limits assumed)).
T1 construct: extracellular domain; Expressed in Drosophila S2 cells from pMT-His-PSMA (pMT/BiP/V5-HisA backbone) and purified on Ni-NTA; also called His-tagged PSMA; recombinant PSMA
Kind of assay: phage display selection in solution on His-PSMA, three rounds, capture with anti-His magnetic beads. The method, then: Phage Library Screening—Peptides from the random M13 12-mer phage library were selected using His-tagged PSMA as the target, which was then captured using magnetically labeled Anti-His Tag Antibody. To remove non-specific phage binding to Anti-His antibody and other components of the magnetic separation system, the library was depleted 2 times with the His-MACS system. First Round of Screening: The final eluate from negative screening was incubated with 0.8 μgs of PSMA for 30 mins at room temperature. 50 uls of His-MACS were added and allowed to bind for 30 mins at room temperature. The incubation mixture was loaded onto a MACS column and washed twice with 1 ml of PBS/0.1% Tween 20 (PBST). Beads containing PSMA bound to phage were collected and amplified using PhD Kit protocol (NEB, Auburn, Mass.). Second Round Screening: Negative screening was repeated as above except with more BSA (0.5%) and longer incubation (1 hr at 4° C.). 10^10 pfu from the first round of screen were then incubated with PSMA in 1% BSA for 6 hrs at 4° C. His-MACS in 3% BSA were incubated for 30 mins and bound phages were collected and amplified as in round one. For third round screening the same method was used except Mouse IgG solution (100 μgs/ml) was added to the blocking solution. Individual phage were selected and sequenced after third round of screening.
To decrease the selection of non-specific low affinity binders, phage screening was performed in solution and incorporated negative screening steps using other selection components (i.e. antibodies, magnetic beads, etc.) to remove many background binders (22). Thus, for this study the phage library was incubated with magnetically labeled Anti-His_6 (SEQ ID NO: 25) antibody […]. After negative selection steps, His-PSMA was incubated with the phage library and phages bound to His-PSMA were captured using magnetically labeled Anti-His_6 (SEQ ID NO: 25) antibody, FIG. 1.
For B1, the binding result is on record as “binds”.
B2: the binding result is recorded as “binds”.
The same measure, in the same setting: to B3 belongs “binds”.
On the same count and under the same terms, the same measure for B4: “binds”; for B5: “binds”.
On the same count and under the same terms, the same measure for B6: “binds”; for B7: “binds”.
B8: the binding result is given as “binds”.
Still for that read-out and setting: the same measure for B9: “binds”; for B10: “binds”.
On the same count and under the same terms, to B11 belongs “binds”; to B12, “binds”.
Take B13: the binding result is reported as “binds”.
As to B14, the binding result is on record as “binds”.
On the same count and under the same terms, the same measure for B15: “binds”; for B16: “binds”; for B17: “binds”.

For a further assay, the target named is T1, His-PSMA (recombinant extracellular …). The experiment in a line: ELISA, biotinylated peptide on immobilized PSMA or BSA. The source says:
(§1) Recombinant PSMA (0.625 µgs) and BSA (25 µgs/ml) were immobilized and indicated concentrations of the biotinylated […] […] Results are the mean binding in 4 replicate wells each ±S.D.
Turning to B18, the binding result is reported as “no binding”.

The next assay has the same target. Kind of assay: ELISA, biotinylated peptide on immobilized PSMA against immobilized BSA.
Description: as §1
(An ELISA detects its analyte on a solid surface through an enzyme-linked reagent.)
For B19, the binding result is given as “binds”.

A further assay shares this target. The experiment in a line: cell-based or functional assay.
Turning to B20, the “fold better inhibition of PSMA than the monomer” value was about 10 fold and the “inhibition of NAAG hydrolysis (NAALADase activity of PSMA), IC50” value was 2.2 µM.
With WQPDTAHHWATL [monomeric WQPDTAHHWATL (SEQ ID NO:1) peptide (as used in the NAALADase assay)], the “inhibition of NAAG hydrolysis (NAALADase activity of PSMA), IC50” value was 23 µM.

The target is the same in the next assay. Kind of assay: phage ELISA on immobilized His-PSMA against immobilized BSA, phage at 10^10 pfu/ml, anti-M13-HRP.
As to B21, the “fold higher binding to PSMA compared to BSA” value was about 10 fold.
